Tests used:
[1] = target: substrate B with the designed M13 variant M13-3 (SpyCatcher-M13-3-LPETG-SpyTag(DA)); experiment: ITC; CaM (200 μM) titrated into B or P (18 μM); the paper calls K_a(c) an apparent binding constant
[2] = target: substrate B with the designed M13 variant M13-2 (SpyCatcher-M13-2-LPETG-SpyTag(DA)); experiment: as above
[3] = target: substrate B (SpyCatcher-M13-LPETG-SpyTag(DA)), with the original M13 (M13-1); experiment: kinetics of the covalent SpyTag-SpyCatcher reaction by SDS-PAGE densitometry + LC-MS of the product; A and B mixed 1:1 (10 μM each) with 0.1 equiv of SrtA or C, Tris-HCl buffer, pH 8.0, 10 mM CaCl2, 37 °C

Substance | Ka [1] | Ka [2] | k AB(c), second-order rate constant of the covalent SpyTag-SpyCatcher reaction in the catalyzed cascade (with C) [3] | k AB(s), second-order rate constant of the covalent SpyTag-SpyCatcher reaction in the spontaneous cascade (with SrtA) [3]
calmodulin (CaM) (from UniProt P0DP23 1-149) (natural protein) | < 100 M⁻¹ | 20000 M⁻¹ |  | 
substrate A (GGG-SpyTag-YFP) |  |  | 90 M^–1 s^–1 | 67 M^–1 s^–1
